In article PMC9482650, “Quantitative fragmentomics allow affinity mapping of interactomes” (Nature Communications, 2022):

How the values were obtained:
Assay in all cases: holdup assay
Design in all cases: key: below the threshold = too weak to quantify, mostly under pKd 3.1 to 4
Conditions in all cases: plain residues with an end cap or a label only (N-terminal biotin on a linker: ado-ado)
[1] = molecular target: DLG4_1, P78352
[2] = molecular target: FRMPD3, Q5JV73
[3] = molecular target: T1, SYNJ2BP, P57105
T1 sequence (P57105 8-110, limits assumed, looked up): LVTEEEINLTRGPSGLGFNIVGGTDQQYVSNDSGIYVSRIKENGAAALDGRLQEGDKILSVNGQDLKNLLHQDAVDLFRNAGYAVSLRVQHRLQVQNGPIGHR

[4] = molecular target: IL16_3, Q14005
[5] = molecular target: T2, APBA1_2, Q02410
T2 sequence (Q02410 742-832, limits assumed, looked up): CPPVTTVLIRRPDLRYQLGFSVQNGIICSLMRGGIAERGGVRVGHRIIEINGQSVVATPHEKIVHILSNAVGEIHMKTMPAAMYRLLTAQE

[6] = molecular target: T3, DLG3_2, Q92796
T3 sequence (Q92796 221-321, limits assumed, looked up): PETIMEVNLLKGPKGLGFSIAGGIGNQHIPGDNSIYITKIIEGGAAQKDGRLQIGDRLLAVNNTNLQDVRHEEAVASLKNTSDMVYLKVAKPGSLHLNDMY

[7] = molecular target: PDLIM1, O00151
[8] = molecular target: T4, GRIP1_3, Q9Y3R0
T4 sequence (Q9Y3R0 247-346, limits assumed, looked up): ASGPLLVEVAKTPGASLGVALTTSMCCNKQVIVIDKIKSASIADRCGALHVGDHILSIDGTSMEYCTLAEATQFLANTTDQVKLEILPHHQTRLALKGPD

[9] = molecular target: GRID2IP_2, A4D2P6
[10] = molecular target: MAGI1_1, Q96QZ7
[11] = molecular target: T5, APBA2_1, Q99767
T5 sequence (Q99767 563-664, limits assumed, looked up): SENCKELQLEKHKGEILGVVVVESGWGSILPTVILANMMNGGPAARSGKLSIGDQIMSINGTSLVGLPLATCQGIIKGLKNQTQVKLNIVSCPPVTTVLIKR

[12] = molecular target: GRIP2_5, Q9C0E4
[13] = molecular target: T6, LNX2_2, Q8N448
T6 sequence (Q8N448 334-432, limits assumed, looked up): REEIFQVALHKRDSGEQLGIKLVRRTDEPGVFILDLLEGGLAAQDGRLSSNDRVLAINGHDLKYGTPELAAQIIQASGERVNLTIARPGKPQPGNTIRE

[14] = molecular target: HTRA1, Q92743
[15] = molecular target: T7, MPP2, Q14168
T7 sequence (Q14168 180-250, limits assumed, looked up): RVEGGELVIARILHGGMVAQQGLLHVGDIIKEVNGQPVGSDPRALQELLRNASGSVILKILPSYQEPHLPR

[16] = molecular target: T8, RHPN1, Q8TCX5
T8 sequence (Q8TCX5 508-602, limits assumed, looked up): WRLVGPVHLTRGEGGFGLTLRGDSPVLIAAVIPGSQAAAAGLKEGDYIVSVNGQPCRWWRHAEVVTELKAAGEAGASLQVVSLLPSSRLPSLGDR

[17] = molecular target: DLG2_3, Q15700
[18] = molecular target: GRIP2_4, Q9C0E4
[19] = molecular target: DLG4_2, P78352
[20] = molecular target: T9, GRIP1_5, Q9Y3R0
T9 sequence (Q9Y3R0 568-668, limits assumed, looked up): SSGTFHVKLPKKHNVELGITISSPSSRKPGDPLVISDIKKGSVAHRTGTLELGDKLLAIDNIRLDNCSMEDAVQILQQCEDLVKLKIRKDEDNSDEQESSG

[21] = molecular target: PICK1, Q9NRD5
[22] = molecular target: T10, NHERF3_3, Q5T2W1
T10 sequence (Q5T2W1 238-333, limits assumed, looked up): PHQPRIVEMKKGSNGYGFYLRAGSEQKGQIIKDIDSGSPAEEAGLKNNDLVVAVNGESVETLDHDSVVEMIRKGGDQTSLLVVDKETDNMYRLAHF

[23] = molecular target: T11, APBA1_1, Q02410
T11 sequence (Q02410 651-752, limits assumed, looked up): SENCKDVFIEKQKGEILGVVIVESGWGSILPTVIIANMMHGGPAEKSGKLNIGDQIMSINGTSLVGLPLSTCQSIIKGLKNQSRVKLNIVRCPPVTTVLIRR

[24] = molecular target: Inadl_8, Q8NI35
[25] = molecular target: NOS1, P29475
[26] = molecular target: T12, NHERF3_1, Q5T2W1
T12 sequence (Q5T2W1 4-100, limits assumed, looked up): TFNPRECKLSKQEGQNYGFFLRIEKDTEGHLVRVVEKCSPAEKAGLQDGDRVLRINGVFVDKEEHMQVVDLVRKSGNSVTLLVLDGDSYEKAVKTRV

GRIP2_5, Q9C0E4, sequence (Q9C0E4 544-642): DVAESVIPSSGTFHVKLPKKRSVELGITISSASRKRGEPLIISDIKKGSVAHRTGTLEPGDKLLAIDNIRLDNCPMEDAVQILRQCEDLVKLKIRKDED
DLG4_2, P78352, sequence (P78352 155-259): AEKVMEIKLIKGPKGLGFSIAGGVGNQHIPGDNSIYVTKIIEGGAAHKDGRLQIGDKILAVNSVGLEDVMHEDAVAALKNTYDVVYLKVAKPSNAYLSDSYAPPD
GRIP2_4, Q9C0E4, sequence (Q9C0E4 446-548): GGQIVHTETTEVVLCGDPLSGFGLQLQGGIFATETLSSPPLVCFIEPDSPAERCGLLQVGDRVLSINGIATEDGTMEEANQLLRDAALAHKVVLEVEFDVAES
IL16_3, Q14005, sequence (Q14005 1107-1207): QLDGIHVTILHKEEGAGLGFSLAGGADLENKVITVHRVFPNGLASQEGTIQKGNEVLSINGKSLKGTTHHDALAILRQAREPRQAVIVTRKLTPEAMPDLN
MAGI1_1, Q96QZ7, sequence (Q96QZ7 1-106): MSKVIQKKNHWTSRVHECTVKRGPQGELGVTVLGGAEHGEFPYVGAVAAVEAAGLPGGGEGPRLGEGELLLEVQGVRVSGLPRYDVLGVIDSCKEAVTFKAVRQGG
HTRA1, Q92743, sequence (Q92743 360-477): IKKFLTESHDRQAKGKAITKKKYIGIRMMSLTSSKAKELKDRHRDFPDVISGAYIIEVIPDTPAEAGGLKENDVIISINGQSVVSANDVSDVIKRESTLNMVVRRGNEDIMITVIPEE
FRMPD3, Q5JV73, sequence (Q5JV73 12-100): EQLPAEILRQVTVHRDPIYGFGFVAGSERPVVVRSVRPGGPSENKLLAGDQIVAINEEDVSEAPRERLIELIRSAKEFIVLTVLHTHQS
GRID2IP_2, A4D2P6, sequence (A4D2P6 272-370): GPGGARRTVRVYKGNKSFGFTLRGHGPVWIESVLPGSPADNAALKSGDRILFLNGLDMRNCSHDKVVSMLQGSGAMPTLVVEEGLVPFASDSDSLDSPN
NOS1, P29475, sequence (P29475 9-101): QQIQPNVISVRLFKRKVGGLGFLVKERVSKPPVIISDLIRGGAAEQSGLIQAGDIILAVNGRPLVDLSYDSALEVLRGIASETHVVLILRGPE
Inadl_8, Q8NI35, sequence (Q8NI35 1425-1530): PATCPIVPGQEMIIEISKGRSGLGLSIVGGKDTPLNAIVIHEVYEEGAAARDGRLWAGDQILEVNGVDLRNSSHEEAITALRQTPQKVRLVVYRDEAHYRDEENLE
PDLIM1, O00151, sequence (O00151 1-87): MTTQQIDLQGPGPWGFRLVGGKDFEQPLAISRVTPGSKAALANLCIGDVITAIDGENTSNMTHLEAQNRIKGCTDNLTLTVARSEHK
PICK1, Q9NRD5, sequence (Q9NRD5 17-115): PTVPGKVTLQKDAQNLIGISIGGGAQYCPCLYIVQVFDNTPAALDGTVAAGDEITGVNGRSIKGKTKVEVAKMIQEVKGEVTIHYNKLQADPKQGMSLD
DLG4_1, P78352, sequence (P78352 62-152): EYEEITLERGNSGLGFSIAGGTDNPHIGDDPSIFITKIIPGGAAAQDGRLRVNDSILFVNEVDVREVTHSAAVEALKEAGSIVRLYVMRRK

Binder	pKd [1]	pKd [2]	pKd [3]	pKd [4]	pKd [5]	pKd [6]	pKd [7]	pKd [8]	pKd [9]	pKd [10]	pKd [11]	pKd [12]	pKd [13]	pKd [14]	pKd [15]	pKd [16]	pKd [17]	pKd [18]	pKd [19]	pKd [20]	further results
VISSDDLTEL [CAPN6, Q9Y6Q1]	below the threshold	3.63	below the threshold	below the threshold	3.79	3.99	below the threshold	below the threshold	4.34	below the threshold	below the threshold	below the threshold	below the threshold	4.55	below the threshold	4.5	3.53	below the threshold	below the threshold	below the threshold	pKd [21]: below the threshold; pKd [22]: below the threshold; pKd [23]: below the threshold; pKd [24]: below the threshold; pKd [25]: below the threshold; pKd [26]: 3.67
NKSEPFLTWL [WWTR1, Q9GZV5]	3.49	4.26	4.52	below the threshold	4.89	below the threshold	4.13	below the threshold	4.65	3.69	below the threshold	below the threshold	4.44	4.91	3.62	4.64	below the threshold	below the threshold	3.54	below the threshold	pKd [21]: below the threshold; pKd [22]: 4.12; pKd [23]: 4.11; pKd [24]: below the threshold; pKd [25]: 4.05; pKd [26]: 5.05
RGKNRRQSIF [CDK18, Q07002]	below the threshold	below the threshold	below the threshold	below the threshold	3.47	4.19	below the threshold	below the threshold	below the threshold	below the threshold	below the threshold	below the threshold	3.58	4	3.54	3.58	4.11	below the threshold	3.75	below the threshold	pKd [21]: 4.17; pKd [22]: below the threshold; pKd [23]: below the threshold; pKd [24]: below the threshold; pKd [25]: 3.75; pKd [26]: 3.85
THHRKIHTRV [ZNF599, Q96NL3]	4.98	below the threshold	4.32	below the threshold	3.62	5.26	below the threshold	below the threshold	3.8	3.58	below the threshold	3.48	3.82	3.67	below the threshold	4	4.41	below the threshold	5.64	below the threshold	pKd [21]: below the threshold; pKd [22]: below the threshold; pKd [23]: below the threshold; pKd [24]: 4.38; pKd [25]: 4.02; pKd [26]: 3.63
